For assay [1], the target named is T1, human GITR (human, UniProt Q9Y5U5 26-241).
T1 sequence: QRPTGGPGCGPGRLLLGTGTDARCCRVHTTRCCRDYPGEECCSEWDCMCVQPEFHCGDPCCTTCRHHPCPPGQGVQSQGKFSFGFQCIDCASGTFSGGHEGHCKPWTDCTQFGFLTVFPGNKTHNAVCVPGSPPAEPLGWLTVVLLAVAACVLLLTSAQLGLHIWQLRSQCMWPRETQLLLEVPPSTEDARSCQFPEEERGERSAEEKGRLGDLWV
Kind of assay: cell-based or functional assay.

In assay [2] the target is T1, human GITR. In words: cell-based or functional assay. The source holds these as a separate data set.
Assay [3] has as its target T2, cynomolgus monkey GITR (cynomolgus monkey, UniProt Q9Y5U5 26-241 (human entry)).
T2 construct: also called cyno GITR
T2 chain: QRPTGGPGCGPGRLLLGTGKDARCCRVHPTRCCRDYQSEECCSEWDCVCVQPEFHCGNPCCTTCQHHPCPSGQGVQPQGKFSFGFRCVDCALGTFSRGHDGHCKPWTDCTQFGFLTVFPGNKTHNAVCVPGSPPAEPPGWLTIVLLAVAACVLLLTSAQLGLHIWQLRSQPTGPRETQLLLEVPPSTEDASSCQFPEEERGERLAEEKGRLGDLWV
In words: flow cytometry, cyno T cell binding.

The target of assay [4] is T2, cynomolgus monkey GITR. In words: cyno T cell binding EC50 against human T cell binding EC50.
The target in assay [5] is T1, human GITR. Kind of assay: flow cytometry on activated human T cells.
Assay [6] deals with T1, human GITR. In words: flow cytometry, human T cell binding.
For assay [7], the target named is T3, human GITR (Glucocorticoid-induced TNFR-related gene, TNFRSF18) (human, UniProt Q9Y5U5 26-241).
T3 construct: also called AITR; huGITR
T3 sequence: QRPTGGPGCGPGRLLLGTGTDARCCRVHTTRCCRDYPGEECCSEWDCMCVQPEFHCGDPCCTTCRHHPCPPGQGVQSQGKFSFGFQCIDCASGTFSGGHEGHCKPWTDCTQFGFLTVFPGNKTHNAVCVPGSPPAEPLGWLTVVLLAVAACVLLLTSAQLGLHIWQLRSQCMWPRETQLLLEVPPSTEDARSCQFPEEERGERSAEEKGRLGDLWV
In words: flow cytometry (MFI), antibody titration on anti-CD3-activated primary human T cells (CD25+CD4+).

Assay [8] addresses T3, human GITR (Glucocorticoid-induced …). Kind of assay: cell-based or functional assay.

Read-outs that look alike come from different tables or passages of the source.

B1: 7A10v1 (antibody, human IgG1, kappa, V domains shown)
VH: QVQLVESGGGVVQPGRSLRLSCAASGFTFSSYGMHWVRQAPGKGLEWMAVIWYVGSNKYYADSVKGRFTISRDNSKNTLYLQMNSLRAEDTAVYYCARGGELGRDYYSGMDVWGQGTTVTVSS
VL: DIQMTQSPSSLSASVGDRVTITCRASQGIRNDLGWYQQKPGKAPKRLIYAASSLQSGVPSRFSGSGSGTEFTLTISSLQPEDFATYYCQQHNSYPWTFGQGTKVEIKR
notes: Engineered variant; also called Ab39; SS-13810
On to B1, for which the “Proliferation (Fold over CD3)” value in the assay with human GITR [1] and in the assay with human GITR [2] was 3 fold over CD3 in each case. The “Proliferation EC50” value with human GITR [1] worked out at 3 ng/mL. For the same molecule, the “Activation EC50 ng/mL (IFNg secretion)” value with human GITR [2] was found to be 0.32 ng/mL. For the same molecule, the EC50 turned out to be 173 ng/mL with cynomolgus monkey GITR [3], 56 ng/mL in the assay with human GITR [5] and 27 ng/mL with human GITR [6]. For the same molecule, the “Cyno:Hu Binding EC50 Ratio” value with cynomolgus monkey GITR [4] was 6.4 ratio.

B2: 41G5v2 (antibody, human IgG1, kappa, V domains shown)
VH: QVQLVESGGGVVQPGRSLRLSCAASGFTFSSYGMHWVRQAPGKGLEWVAVIWYPGSNKYYAESVKGRFTISRDNSKNTLYLQMNSLRAEDTAVYYCARGGELGRYYYYGMDVWGQGTTVTVSS
VL: DIQMTQSPSSLSASVGDRVTVTCRASQGIRNDLGWYQQKPGKAPKRLIYAASSLQSGVPSRFSGSGSGTEFTLTISSLQPEDFATYYCLQHNNYPWTFGQGTKVDIKR
notes: Engineered variant; also called Ab56; SS-13809
As to B2, the “Proliferation (Fold over CD3)” value with human GITR [1] and with human GITR [2] was 3.5 fold over CD3 in each case. Further, the “Proliferation EC50” value with human GITR [1] amounted to 3 ng/mL. Besides, the “Activation EC50 ng/mL (IFNg secretion)” value with human GITR [2] is 0.64 ng/mL. The EC50 turned out to be 153 ng/mL in the assay with cynomolgus monkey GITR [3], 57 ng/mL with human GITR [5] and 33 ng/mL with human GITR [6]. Also, the “Cyno:Hu Binding EC50 Ratio” value with cynomolgus monkey GITR [4] stood at 4.6 ratio.

B3: 46E11 (antibody, human IgG1, kappa, V domains shown)
VH: QVQLVESGGGVVQPGRSLRLSCAASGFTFSSYGMHWVRQAPGKGLEWVAVIWYAGSNKYYADSVKGRFTISRDNSKNTLYLQMNSLRAEDTAVYYCARGDILTGYSLYYGMDVWGQGTTVTVSS
VL: DIQMTQSPSSLSASVGDRVTITCRASQGIRNDLGWYQQKPGKAPKRLIYAASSLQSGVPSRFSGSGSGAEFTLTISSLQPEDFATYYCLQHNSYPWTFGQGTKVEIKR
notes: Fully human parental antibody; also called Ab11; SS-12421
Regarding B3, in assay [7], the concentration giving a half-maximal response (EC50) was found to be 30 ng/mL. In assay [8], the “IFNg Secretion (Fold over CD3)” value was 2.2 fold over CD3 and the “IFNg Secretion EC50” value came out at 0.9 ng/mL.

B4: 41E11 (antibody, human IgG1, kappa, V domains shown)
VH: QVQVVESGGGVVQPGRSLRLSCAASGFTFSSYGMYWVRQAPGKGLEWVAVIWYEGSNKYYADSVRGRFTISRDNSKNTLYLQMNSLRAEDTALYYCARGGQLGKDYYSGMDVWGQGTTVTVSS
VL: DIQMTQSPSSLSASVGDRVTITCRASQVIRNDLGWYQQKPGKAPKRLIYAASSLQSGVPSRFSGSGSGTEFTLTISSLQPEDFATYYCLQHNSYPLTFGGGTKVEIKR
notes: Fully human parental antibody; also called Ab6; SS-12417
B4 yielded a concentration giving a half-maximal response (EC50) in assay [7] of 48 ng/mL. Besides, in assay [8], the “IFNg Secretion (Fold over CD3)” value worked out at 2 fold over CD3 and the “IFNg Secretion EC50” value is 0.3 ng/mL.

B5: 9H6 (antibody, human IgG1, kappa, V domains shown)
VH: QVQLVESGGGVVQPGRSLRLSCVASGFTFSSYGMHWIRQAPGKGLEWVAVIWYEGSNKYYADSVKGRFTISRDNSKNTLYLQMNSLRAEDTAVYYCARGGRLGKDYYSGMDVWGQGTTVTVSS
VL: DIQMTQSPSSLSASVGDRVTITCRASQGIRNDLGWYQQKPGKAPNRLIYATSSLQSGVPSRFSGSGSGTEFTLTISSLQPEDFATYYCLQHNTYPWTFGQGTKVEIKR
notes: Fully human parental antibody; also called Ab19; SS-10945
On to B5, for which, in assay [7], the concentration for a half-maximal effect (EC50) came out at 26 ng/mL. In assay [8], the “IFNg Secretion (Fold over CD3)” value was 1.9 fold over CD3 and the “IFNg Secretion EC50” value was found to be 0.5 ng/mL.

B6: 33C9v2 (antibody, human IgG1, kappa, V domains shown)
VH: QVQVVESGGGVVQPGRSLRLSCAASGFTFSSYGMHWVRQAPGKGLEWVSVIWYEGSNKYYAESVKGRFTISRDNSKNTLYLQMNSLRAEDTAVYYCARGGLLGYYYYYGMDVWGQGTTVTVSS
VL: DIQMTQSPSSLSASVGDRVTITCRASQGIRNDLGWYQQKPGKAPKRLIYDASSLQSGVPSRFSGSGSGTEFTLTISSLQPEDFATYYCLQHHSYPWTFGQGTKVEIKR
notes: Engineered variant; also called Ab51; SS-13808
Regarding B6, the “Proliferation (Fold over CD3)” value with human GITR [1] and with human GITR [2] was 2.9 fold over CD3 each time. For the same molecule, the “Proliferation EC50” value with human GITR [1] came out at 7 ng/mL. In addition, the “Activation EC50 ng/mL (IFNg secretion)” value in the assay with human GITR [2] was 0.86 ng/mL. Moreover, the EC50 is 301 ng/mL with cynomolgus monkey GITR [3], 60 ng/mL with human GITR [5] and 35 ng/mL with human GITR [6]. Also, in the assay with cynomolgus monkey GITR [4], the “Cyno:Hu Binding EC50 Ratio” value was 8.6 ratio.

B7: 9H6v3 (antibody, human IgG1, kappa, V domains shown)
VH: QVQLVESGGGVVQPGRSLRLSCVASGFTFSSYGMHWIRQAPGKGLEWVAVIWYEGSNKYYAESVKGRFTISRDNSKNTLYLQMNSLRAEDTAVYYCARGGRLGKDYYSGMDVWGQGTTVTVSS
VL: DIQMTQSPSSLSASVGDRVTITCRASQGIRNDLGWYQQKPGKAPKRLIYATSSLQSGVPSRFSGSGSGTEFTLTISSLQPEDFATYYCLQHNTYPWTFGQGTKVEIKR
notes: Engineered variant; also called Ab46; SS-13806
As to B7, the “Proliferation (Fold over CD3)” value in the assay with human GITR [1] and with human GITR [2] was 3.7 fold over CD3 in each case. In the assay with human GITR [1], the “Proliferation EC50” value was 6 ng/mL. In addition, the “Activation EC50 ng/mL (IFNg secretion)” value with human GITR [2] came to 0.06 ng/mL. The results for the EC50 with cynomolgus monkey GITR [3], with human GITR [5] and in the assay with human GITR [6] were 184 ng/mL, 90 ng/mL and 26 ng/mL, respectively. Also, the “Cyno:Hu Binding EC50 Ratio” value with cynomolgus monkey GITR [4] came out at 7.1 ratio.

B8: 48A9v1 (antibody, human IgG1, kappa, V domains shown)
VH: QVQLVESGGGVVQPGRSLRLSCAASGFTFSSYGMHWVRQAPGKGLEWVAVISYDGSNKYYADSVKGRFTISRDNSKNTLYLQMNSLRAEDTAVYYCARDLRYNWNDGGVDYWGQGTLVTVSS
VL: DIQMTQSPSSLSASVGDRVIITCRASQSISSYLHWYKQKPGKAPKLLIYGASRLQSGVPSRFSGSGSGTDFTLTISSLQPEDFATYYCQQSSSTPLTFGGGTKVEIKR
notes: tied to 48A9v1 by Ab24 / SS-12513; also called Ab24; SS-12513
B8: in assay [7], the half-maximal effective concentration (EC50) stood at 145 ng/mL. Besides, in assay [8], the “IFNg Secretion (Fold over CD3)” value is 0.9 fold over CD3 and the “IFNg Secretion EC50” value came out at 79.1 ng/mL.

B9: 44C1v1 (antibody, human IgG1, lambda, V domains shown)
VH: QVQLVESGGGVVQPGRSLRLSCAASGFTLSSYGMHWVRQAPGKGLEWVAVIWYDGSNKYYADSVKGRFTISRDNSKNTLYLQMNSLRAEDTAVYYCARRGTVTTPDFDYWGQGTLVTVSS
VL: QSALTQPASVSGSPGQSITISCTGTSSDVGTYNLVSWYQQHPGKAPKLMIYEVSKRPSGVSNRFSGSKSGNTASLTISGLQAEDEADYYCASYAGFSTWVFGGGTKLTVLG
notes: tied to 44C1v1 by Ab20 / SS-12514; also called Ab20; SS-12514
Consider B9, for which the concentration giving a half-maximal response (EC50) in assay [7] is 802 ng/mL. In addition, in assay [8], the “IFNg Secretion (Fold over CD3)” value was determined as 1.6 fold over CD3 and the “IFNg Secretion EC50” value was 11.4 ng/mL.

B10: 49E2v1 (antibody, human IgG1, lambda, V domains shown)
VH: QVQLVESGGGVVQPGRSLRLSCAASGFTFSSYGMHWVRQAPGKGLEWVAVIWSDGNNKYYEDSVKGRFTISRDSSKNTLFLQMNSLRAEDTAVYYCARDTATPFDYWGQGTLVTVSS
VL: QSALTQPASVSGSPGQSITISCTGTSSDVGIYNLVSWYQQHPGKAPKLMIHEVSKRPSGVSNRFSGSKSGNTASLTISGLQAEDEADYYCASYAGISTWVFGGGTKLTVLG
notes: tied to 49E2v1 by Ab23 / SS-12516; also called Ab23; SS-12516
For the molecule B10, the EC50 in assay [7] was 318 ng/mL. In assay [8], the “IFNg Secretion (Fold over CD3)” value came out at 1.9 fold over CD3 and the “IFNg Secretion EC50” value was 2.2 ng/mL.

B11: 45A8v1 (antibody, human IgG1, lambda, V domains shown)
VH: QVQLVESGGGVVQPGRSLRLSCAASGFTFSSYGMHWVRQAPGKGLEWVAVIWHDGSNKYYADSVKGRFTISKDNSKNTLYLQMNSLRAEDTAVYYCAREYGGNFDYWGQGTLVTVSS
VL: QSALTQPASVSGSPGQSITISCTGTSSDVGTYNLVSWYQQHPGKAPKLMIYEVSKRPSGISNRFSGSKSGNTASLTISGLQAEDEADYYCASYAGYSTWVFGGGTKLTVLR
notes: tied to 45A8v1 by Ab21 / SS-12515; also called Ab21; SS-12515
In the case of B11, the response in assay [7] was half-maximal at 102 ng/mL (EC50). Moreover, in assay [8], the “IFNg Secretion (Fold over CD3)” value was 1.8 fold over CD3 and the “IFNg Secretion EC50” value is 0.7 ng/mL.
